Source: patent publication US11325966

How the values were obtained:
Test in all cases: cell-based or functional assay
92BR020 (HIV-1) = target: 92BR020 (HIV-1)
92BR020 I326A (HIV-1) = target: 92BR020 I326A (HIV-1)
92BR020 N136A (HIV-1) = target: 92BR020 N136A (HIV-1)
[1] = target: 92BR020 N136A + N332A (HIV-1)
92BR020 N156A (HIV-1) = target: 92BR020 N156A (HIV-1)
[2] = target: 92BR020 N301A + N332A (HIV-1)
[3] = target: BG505 (T332N) N392A (HIV-1)
[4] = target: HIV-1 Env of pseudovirus 1012_11_TC21_3257 (HIV-1)
[5] = target: HIV-1 Env of pseudovirus 191084 B7-19 (HIV-1)
[6] = target: HIV-1 Env of pseudovirus 231965.c01 (HIV-1)
[7] = target: HIV-1 Env of pseudovirus 3301.v1.c24 (HIV-1)
[8] = target: HIV-1 Env of pseudovirus 6041.v3.c23 (HIV-1)
[9] = target: HIV-1 Env of pseudovirus 620345.c01 (HIV-1)
[10] = target: HIV-1 Env of pseudovirus 6480.v4.c25 (HIV-1)
[11] = target: HIV-1 Env of pseudovirus 6535.3 (HIV-1)
[12] = target: HIV-1 Env of pseudovirus 6540.v4.c1 (HIV-1)
[13] = target: HIV-1 Env of pseudovirus 7030102001E5(Rev-) (HIV-1)
[14] = target: HIV-1 Env of pseudovirus A07412M1.vrc12 (HIV-1)
[15] = target: HIV-1 Env of pseudovirus BJOX010000.06.2 (HIV-1)
[16] = target: HIV-1 Env of pseudovirus BJOX028000.10.3 (HIV-1)
[17] = target: HIV-1 Env of pseudovirus C1080.c03 (HIV-1)
[18] = target: HIV-1 Env of pseudovirus CNE17 (HIV-1)
[19] = target: HIV-1 Env of pseudovirus CNE19 (HIV-1)
[20] = target: HIV-1 Env of pseudovirus CNE21 (HIV-1)
[21] = target: HIV-1 Env of pseudovirus CNE53 (HIV-1)
[22] = target: HIV-1 Env of pseudovirus Ce0393_C3 (HIV-1)
[23] = target: HIV-1 Env of pseudovirus Ce2060_G9 (HIV-1)
[24] = target: HIV-1 Env of pseudovirus Du172.17 (HIV-1)
[25] = target: HIV-1 Env of pseudovirus Du422.1 (HIV-1)
[26] = target: HIV-1 Env of pseudovirus HIV-001428-2.42 (HIV-1)
[27] = target: HIV-1 Env of pseudovirus MS208.A1 (HIV-1)
[28] = target: HIV-1 Env of pseudovirus Q259.d2.17 (HIV-1)
[29] = target: HIV-1 Env of pseudovirus Q461.e2 (HIV-1)
[30] = target: HIV-1 Env of pseudovirus Q769.d22 (HIV-1)
[31] = target: HIV-1 Env of pseudovirus Q842.d12 (HIV-1)
[32] = target: HIV-1 Env of pseudovirus R1166.c01 (HIV-1)
[33] = target: HIV-1 Env of pseudovirus REJO4541.67 (HIV-1)
[34] = target: HIV-1 Env of pseudovirus T257-31 (HIV-1)
[35] = target: HIV-1 Env of pseudovirus X1254_c3 (HIV-1)
[36] = target: HIV-1 Env of pseudovirus ZM214M.PL15 (HIV-1)
[37] = target: HIV-1 Env of pseudovirus ZM247v1(Rev-) (HIV-1)
JR-CSF N392A (HIV-1) = JR-CSF N392A (HIV-1) (UniProt P20871)

354BG8 (antibody)
IC50 in TZM-bl assay (92BR020 (HIV-1)): 0.015 µg/mL
IC50 in TZM-bl assay (92BR020 I326A (HIV-1)): 0.006 µg/mL
IC50 in TZM-bl assay (92BR020 N136A (HIV-1)): 0.005 µg/mL
IC50 in TZM-bl assay [1]: > 50 µg/mL
IC50 in TZM-bl assay (92BR020 N156A (HIV-1)): 0.011 µg/mL
IC50 in TZM-bl assay [2]: > 50 µg/mL
IC50 in TZM-bl assay [3]: 0.005 µg/mL
IC50 in TZM-bl assay [4]: 0.011 µg/mL
IC80 in TZM-bl assay [4]: 0.047 µg/mL
IC50 in TZM-bl assay [5]: 0.026 µg/mL
IC80 in TZM-bl assay [5]: 0.108 µg/mL
IC50 in TZM-bl assay [6]: > 10 µg/mL
IC80 in TZM-bl assay [6]: > 10 µg/mL
IC50 in TZM-bl assay [7]: 0.018 µg/mL
IC80 in TZM-bl assay [7]: 0.049 µg/mL
IC50 in TZM-bl assay [8]: > 10 µg/mL
IC80 in TZM-bl assay [8]: > 10 µg/mL
IC50 in TZM-bl assay [9]: > 10 µg/mL
IC80 in TZM-bl assay [9]: > 10 µg/mL
IC50 in TZM-bl assay [10]: 0.006 µg/mL
IC80 in TZM-bl assay [10]: 0.023 µg/mL
IC50 in TZM-bl assay [11]: 0.007 µg/mL
IC80 in TZM-bl assay [11]: 0.022 µg/mL
IC50 in TZM-bl assay [12]: > 10 µg/mL
IC80 in TZM-bl assay [12]: > 10 µg/mL
IC50 in TZM-bl assay [13]: 0.009 µg/mL
IC80 in TZM-bl assay [13]: 0.019 µg/mL
IC50 in TZM-bl assay [14]: 0.011 µg/mL
IC80 in TZM-bl assay [14]: 0.037 µg/mL
IC50 in TZM-bl assay [15]: > 10 µg/mL
IC80 in TZM-bl assay [15]: > 10 µg/mL
IC50 in TZM-bl assay [16]: > 10 µg/mL
IC80 in TZM-bl assay [16]: > 10 µg/mL
IC50 in TZM-bl assay [17]: > 10 µg/mL
IC80 in TZM-bl assay [17]: > 10 µg/mL
IC50 in TZM-bl assay [18]: 1.18 µg/mL
IC80 in TZM-bl assay [18]: 4.85 µg/mL
IC50 in TZM-bl assay [19]: 0.075 µg/mL
IC80 in TZM-bl assay [19]: > 10 µg/mL
IC50 in TZM-bl assay [20]: 0.047 µg/mL
IC80 in TZM-bl assay [20]: 0.124 µg/mL
IC50 in TZM-bl assay [21]: 0.013 µg/mL
IC80 in TZM-bl assay [21]: 0.058 µg/mL
IC50 in TZM-bl assay [22]: > 10 µg/mL
IC80 in TZM-bl assay [22]: > 10 µg/mL
IC50 in TZM-bl assay [23]: > 10 µg/mL
IC80 in TZM-bl assay [23]: > 10 µg/mL
IC50 in TZM-bl assay [24]: 0.049 µg/mL
IC80 in TZM-bl assay [24]: 0.194 µg/mL
IC50 in TZM-bl assay [25]: 0.047 µg/mL
IC80 in TZM-bl assay [25]: 0.113 µg/mL
IC50 in TZM-bl assay [26]: 0.035 µg/mL
IC80 in TZM-bl assay [26]: 0.126 µg/mL
IC50 in TZM-bl assay [27]: > 10 µg/mL
IC80 in TZM-bl assay [27]: > 10 µg/mL
IC50 in TZM-bl assay [28]: > 10 µg/mL
IC80 in TZM-bl assay [28]: > 10 µg/mL
IC50 in TZM-bl assay [29]: > 10 µg/mL
IC80 in TZM-bl assay [29]: > 10 µg/mL
IC50 in TZM-bl assay [30]: > 10 µg/mL
IC80 in TZM-bl assay [30]: > 10 µg/mL
IC50 in TZM-bl assay [31]: > 10 µg/mL
IC80 in TZM-bl assay [31]: > 10 µg/mL
IC50 in TZM-bl assay [32]: > 10 µg/mL
IC80 in TZM-bl assay [32]: > 10 µg/mL
IC50 in TZM-bl assay [33]: > 10 µg/mL
IC80 in TZM-bl assay [33]: > 10 µg/mL
IC50 in TZM-bl assay [34]: > 10 µg/mL
IC80 in TZM-bl assay [34]: > 10 µg/mL
IC50 in TZM-bl assay [35]: 0.063 µg/mL
IC80 in TZM-bl assay [35]: 0.239 µg/mL
IC50 in TZM-bl assay [36]: 0.415 µg/mL
IC80 in TZM-bl assay [36]: 2.97 µg/mL
IC50 in TZM-bl assay [37]: 0.042 µg/mL
IC80 in TZM-bl assay [37]: 0.146 µg/mL
IC50 in TZM-bl assay (JR-CSF N392A (HIV-1)): 0.014 µg/mL
